Measurements published in patent EP4810056A2.

Biological target: PD-1 (programmed death 1) on peripheral CD4 T cells of treated subjects (human) (UniProt Q15116)
Experiment: flow cytometry of free PD-1 on CD4 T cells of subjects after IV MEDI5752 (receptor occupancy, in vivo dosing >225 mg)

UniProt Q15116, sequence (Q15116 25-288): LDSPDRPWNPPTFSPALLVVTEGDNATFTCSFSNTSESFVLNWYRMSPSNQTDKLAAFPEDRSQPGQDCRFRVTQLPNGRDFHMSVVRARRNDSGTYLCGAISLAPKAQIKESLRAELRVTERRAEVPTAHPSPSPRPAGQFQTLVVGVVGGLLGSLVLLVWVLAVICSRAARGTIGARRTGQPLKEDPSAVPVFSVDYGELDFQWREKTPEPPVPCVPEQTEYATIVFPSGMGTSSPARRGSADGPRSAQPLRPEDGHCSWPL

## MEDI5752 (bispecific antibody)
  peripheral PD-1 receptor occupancy: > 90%
